Results taken from publication doi:10.1101/2024.12.10.627789.

Target: CAM1
Experiment: ITC

Kd: 255 nM
Substance: CBD peptide of eEF2K
